One block for each molecule: values may come before it.
Legend:
[1] = target: T1, human plasmin (human, UniProt P00747 97-810); test: cell-based or functional assay
[2] = target: T1, human plasmin; test: amidolytic inhibition of 3 nM plasmin, tight-binding equation
Protocol: (§1) All reactions were carried out in TBS, pH 7.5 (50 mM Tris-HCL, pH 7.5, containing 100 mM NaCl), containing 0.1 mg bovine serum albumin/ml (TBS/BSA) and 2 mM Ca2+(TBS/BSA/Ca2+, pH 7.5). […] The inhibition constant, K* was determined using the nonlinear regression data analysis program Grafit.

[3] = target: T1, human plasmin; test: residual activity of 3 nM plasmin (percent fractional activity by the legend; the axis is labelled % Pm Inhibition), substrate S-2251 [A]
[4] = target: T2, Plasma kallikrein (pKLK) (Homo sapiens, UniProt P03952); test: Protease inhibition assay, plasma kallikrein; format: biochemical; details: 1 nM kallikrein
T2 construct: Plasma kallikrein (pKLK) was from Enzyme Research Laboratories; purchased Enzyme Research Laboratories (South Bend, IN)
Protocol: as §1
(§2) Ki values were obtained by correcting for the effect of substrate according to Beith (38), using equation 2, where (S) is substrate concentration and KM is specific for each enzyme.

[5] = target: T3, human FXIa (Homo sapiens, UniProt P03951); test: Protease inhibition assay, factor XIa; format: biochemical; details: 1 nM FXIa
T3 construct: Purified human FXIa, thrombin (IIa) and plasmin were purchased; purchased Hematologic Technologies Inc (Essex Junction, VT)
Protocol: as §1, §2

[6] = target: T4, FVIIa/sTF (Homo sapiens, UniProt P08709); test: Protease inhibition assay, FVIIa/soluble tissue factor; format: biochemical; details: 20 nM FVIIa/sTF; read-out: Ki for Factor VIIa/soluble tissue factor
T4 construct: human factor VIIa (FVIIa) was prepared as described previously (34)
Protocol: as §1, §2

[7] = target: T5, FXa (Homo sapiens, UniProt P00742); test: Protease inhibition assay, factor Xa; format: biochemical; details: 1 nM FXa
T5 construct: FXa, factor Xa
Protocol: FIG. 2. Data from Equilibrium inhibition constants (Ki) of KD1Y11T/R15KL17R-KT with plasmin, FXIa, kallikrein (KLK), FVIIa/sTF and FXa. Percent activity of 3 nM human plasmin remaining in the presence of various concentrations (0.05 to 19.2 nM) of KD1Y11T/R15KL17R-KT (●) or BPTI (◯). And percent activity of 1 nM human FXIa (▴), 1 nM human kallikrein (●), 20 nM human FVIIa/sTF (Δ) and 1 nM FXa (♦) remaining in the presence of various concentrations (1 μM to 30 μM) of KD1Y11T/R15KL17R-KT.
Ki values for each inhibitor were calculated using the tight binding equations.

[8] = test system: tPA-induced plasma clot fibrinolysis; test: Fibrinolysis (clot lysis) assay in normal pooled plasma; format: biochemical; details: human NPP
Protocol: The method of Sperzel and Huetter (40) was followed with minor modifications as outlined earlier (32,41). Briefly, IIa was used to initiate fibrin formation in NPP and the lysis of the formed clot (fibrinolysis) was induced by simultaneous addition of tPA. Clot formation and lysis were monitored with a Molecular Devices microplate reader (SPECTRAmax 190) measuring the optical density at 405 nm. […] Two hundred twenty-five μL of this mixture was then added to 25 μL IIa and tPA in TBS/BSA containing 25 mM CaCl2). In the 250 μL final volume, concentration of IIa was 0.15 μg/ml and that of tPA was 1 μg/ml. Under control conditions (zero tPA and zero test compound), OD405 increased immediately indicating clotting followed by an extremely slow decrease representing fibrinolysis. As clotting was almost complete after 5 minutes, fibrinolysis induced by tPA was evaluated as a relative decrease of OD405 up to 60 minutes.
Addition of thrombin (IIa) to human normal pooled plasma (NPP) caused fibrin formation, which is reflected by the increase in OD405 (black curve, FIGS. 3A and 3B). Simultaneous addition of tPA caused initial clot formation followed by dissolution of fibrin induced by tPA-mediated conversion of plasminogen to plasmin (black curve with closed circles, FIGS. 3A and 3B); the midpoint of fibrinolysis was ˜8 min in each case. Both antifibrinolytic agents inhibited fibrinolysis in a dose-dependent manner.

[9] = target: T1, human plasmin; test: protease amidolytic inhibition, tight-binding equation

T1 sequence (P00747 97-810 limits assumed): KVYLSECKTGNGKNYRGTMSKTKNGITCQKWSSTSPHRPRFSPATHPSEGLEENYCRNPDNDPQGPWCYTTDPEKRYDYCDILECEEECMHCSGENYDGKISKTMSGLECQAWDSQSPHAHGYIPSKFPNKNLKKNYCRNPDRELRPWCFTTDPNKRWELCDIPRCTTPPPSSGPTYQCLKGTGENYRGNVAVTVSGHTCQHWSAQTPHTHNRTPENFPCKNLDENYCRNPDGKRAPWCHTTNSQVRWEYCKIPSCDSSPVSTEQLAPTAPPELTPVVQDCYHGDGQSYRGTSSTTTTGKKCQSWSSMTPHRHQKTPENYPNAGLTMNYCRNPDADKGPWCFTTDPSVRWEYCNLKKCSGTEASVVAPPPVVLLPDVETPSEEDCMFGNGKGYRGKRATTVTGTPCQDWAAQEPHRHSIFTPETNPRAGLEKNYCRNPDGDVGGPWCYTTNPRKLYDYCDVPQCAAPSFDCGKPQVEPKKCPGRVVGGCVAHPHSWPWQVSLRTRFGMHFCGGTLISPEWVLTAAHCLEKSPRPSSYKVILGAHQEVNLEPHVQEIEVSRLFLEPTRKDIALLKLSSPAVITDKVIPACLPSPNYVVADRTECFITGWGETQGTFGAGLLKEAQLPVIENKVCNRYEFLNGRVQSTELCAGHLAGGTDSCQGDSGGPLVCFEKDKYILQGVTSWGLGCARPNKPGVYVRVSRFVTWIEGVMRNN
T4 sequence (P08709 213-466 limits assumed): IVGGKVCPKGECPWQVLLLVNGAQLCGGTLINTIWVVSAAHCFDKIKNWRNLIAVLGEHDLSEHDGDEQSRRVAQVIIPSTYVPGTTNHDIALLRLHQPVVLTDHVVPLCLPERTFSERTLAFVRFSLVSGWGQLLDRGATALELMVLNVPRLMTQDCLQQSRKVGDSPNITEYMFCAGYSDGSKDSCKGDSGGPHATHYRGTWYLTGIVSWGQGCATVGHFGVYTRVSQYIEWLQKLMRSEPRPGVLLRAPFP
T4 sequence (P08709 61-212 limits assumed): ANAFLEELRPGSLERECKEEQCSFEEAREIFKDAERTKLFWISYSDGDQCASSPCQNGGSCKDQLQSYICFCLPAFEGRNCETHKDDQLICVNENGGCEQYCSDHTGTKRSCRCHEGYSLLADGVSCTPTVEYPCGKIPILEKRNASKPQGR
T4 sequence (P13726 33-251 partner limits assumed): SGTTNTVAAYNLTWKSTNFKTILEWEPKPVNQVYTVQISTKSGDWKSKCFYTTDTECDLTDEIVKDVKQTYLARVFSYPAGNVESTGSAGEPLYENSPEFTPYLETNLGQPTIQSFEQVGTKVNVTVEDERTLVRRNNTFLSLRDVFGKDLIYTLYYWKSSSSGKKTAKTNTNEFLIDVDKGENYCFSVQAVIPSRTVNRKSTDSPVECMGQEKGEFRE
T3 sequence (P03951 19-387 limits assumed): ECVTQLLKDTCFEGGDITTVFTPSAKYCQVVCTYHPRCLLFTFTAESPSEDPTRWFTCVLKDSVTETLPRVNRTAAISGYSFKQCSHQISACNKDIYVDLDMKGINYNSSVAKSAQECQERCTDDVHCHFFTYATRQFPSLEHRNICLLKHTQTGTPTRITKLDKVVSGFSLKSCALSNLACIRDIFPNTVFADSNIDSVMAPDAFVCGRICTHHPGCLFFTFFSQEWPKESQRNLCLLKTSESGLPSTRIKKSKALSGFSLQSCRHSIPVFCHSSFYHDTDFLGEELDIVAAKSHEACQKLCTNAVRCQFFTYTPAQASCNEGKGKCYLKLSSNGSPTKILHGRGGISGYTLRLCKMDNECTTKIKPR
T3 sequence (P03951 388-625 limits assumed): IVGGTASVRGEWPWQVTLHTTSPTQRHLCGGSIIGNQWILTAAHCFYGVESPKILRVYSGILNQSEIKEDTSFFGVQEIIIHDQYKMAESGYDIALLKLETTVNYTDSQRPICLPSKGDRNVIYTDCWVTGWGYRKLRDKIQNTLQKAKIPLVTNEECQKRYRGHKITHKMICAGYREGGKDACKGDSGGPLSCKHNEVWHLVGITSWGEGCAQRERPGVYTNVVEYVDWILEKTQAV
T2 sequence (P03952 20-390 limits assumed): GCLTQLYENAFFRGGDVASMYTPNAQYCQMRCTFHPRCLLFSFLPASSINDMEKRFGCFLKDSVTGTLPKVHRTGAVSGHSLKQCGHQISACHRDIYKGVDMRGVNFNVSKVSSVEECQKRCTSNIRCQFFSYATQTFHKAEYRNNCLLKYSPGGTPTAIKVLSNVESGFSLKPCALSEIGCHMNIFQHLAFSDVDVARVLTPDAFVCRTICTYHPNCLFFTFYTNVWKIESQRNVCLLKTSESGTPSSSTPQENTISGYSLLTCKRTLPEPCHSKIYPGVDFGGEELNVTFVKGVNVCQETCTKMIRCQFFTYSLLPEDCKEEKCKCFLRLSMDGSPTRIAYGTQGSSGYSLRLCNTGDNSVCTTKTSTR
T2 sequence (P03952 391-638 limits assumed): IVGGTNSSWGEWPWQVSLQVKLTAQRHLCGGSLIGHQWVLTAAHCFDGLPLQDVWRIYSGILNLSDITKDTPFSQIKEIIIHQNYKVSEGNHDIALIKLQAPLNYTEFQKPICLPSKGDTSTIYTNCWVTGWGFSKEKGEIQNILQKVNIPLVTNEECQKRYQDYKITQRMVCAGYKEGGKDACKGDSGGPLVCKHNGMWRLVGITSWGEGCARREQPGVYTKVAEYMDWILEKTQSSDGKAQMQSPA
T5 sequence (P00742 235-488 limits assumed): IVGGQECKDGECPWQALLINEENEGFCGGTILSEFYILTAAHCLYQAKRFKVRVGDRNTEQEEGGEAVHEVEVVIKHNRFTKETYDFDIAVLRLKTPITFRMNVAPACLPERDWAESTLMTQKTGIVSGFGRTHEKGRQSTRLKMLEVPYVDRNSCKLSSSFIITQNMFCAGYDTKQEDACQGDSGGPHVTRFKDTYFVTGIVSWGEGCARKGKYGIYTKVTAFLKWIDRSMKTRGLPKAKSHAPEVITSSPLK
T5 sequence (P00742 41-179 limits assumed): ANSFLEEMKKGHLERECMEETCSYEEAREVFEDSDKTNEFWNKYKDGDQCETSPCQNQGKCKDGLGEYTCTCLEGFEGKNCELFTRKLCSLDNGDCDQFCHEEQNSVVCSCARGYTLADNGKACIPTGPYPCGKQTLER

TEG G, 1 µM inhibitor, whole blood + 1.5 µM plasmin [1]: 79 dyn/cm^2
TEG G, 2 µM inhibitor, whole blood + 1.5 µM plasmin [1]: 108 dyn/cm^2
TEG G, 3 µM inhibitor, whole blood + 1.5 µM plasmin [1]: 180 dyn/cm^2
TEG G, 5 µM inhibitor, whole blood + 1.5 µM plasmin [1]: 818 dyn/cm^2
TEG G, 7.5 µM inhibitor, whole blood + 1.5 µM plasmin [1]: 820 dyn/cm^2
TEG LY30, 1 µM inhibitor, whole blood + 1.5 µM plasmin [1]: 100%
TEG LY30, 2 µM inhibitor, whole blood + 1.5 µM plasmin [1]: 100%
TEG LY30, 3 µM inhibitor, whole blood + 1.5 µM plasmin [1]: 100%
TEG LY30, 5 µM inhibitor, whole blood + 1.5 µM plasmin [1]: 6.5%
TEG LY30, 7.5 µM inhibitor, whole blood + 1.5 µM plasmin [1]: 0%
TEG LY60, 1 µM inhibitor, whole blood + 1.5 µM plasmin [1]: 100%
TEG LY60, 2 µM inhibitor, whole blood + 1.5 µM plasmin [1]: 100%
TEG LY60, 3 µM inhibitor, whole blood + 1.5 µM plasmin [1]: 100%
TEG LY60, 5 µM inhibitor, whole blood + 1.5 µM plasmin [1]: 22.4%
TEG LY60, 7.5 µM inhibitor, whole blood + 1.5 µM plasmin [1]: 0%
TEG MA, 1 µM inhibitor, whole blood + 1.5 µM plasmin [1]: 1.45 mm
TEG MA, 2 µM inhibitor, whole blood + 1.5 µM plasmin [1]: 2.23 mm
TEG MA, 3 µM inhibitor, whole blood + 1.5 µM plasmin [1]: 3.49 mm
TEG MA, 5 µM inhibitor, whole blood + 1.5 µM plasmin [1]: 13.9 mm
TEG MA, 7.5 µM inhibitor, whole blood + 1.5 µM plasmin [1]: 11.7 mm
Ki [2]: 6 nM
IC50 (read off the curve) [3]: ~9 nM
B1: KD1-WT (other)
chain: DAAQEPTGNNAEICLLPLDYGPCRALLLRYYYDRYTQSCRQFLYGGCEGNANNFYTWEACDDACWRIEKVPKV
notes: also called Wild-type KD1; E. coli expressed KD1-WT (IIa cleavage site); not shown: N-terminal residues left from the IIa (thrombin) cleavage site

TEG G, 1 µM inhibitor, whole blood + 1.5 µM plasmin [1]: 329 dyn/cm^2
TEG G, 2 µM inhibitor, whole blood + 1.5 µM plasmin [1]: 599 dyn/cm^2
TEG G, 3 µM inhibitor, whole blood + 1.5 µM plasmin [1]: 683 dyn/cm^2
TEG G, 5 µM inhibitor, whole blood + 1.5 µM plasmin [1]: 2320 dyn/cm^2
TEG G, 7.5 µM inhibitor, whole blood + 1.5 µM plasmin [1]: 2530 dyn/cm^2
TEG LY30, 1 µM inhibitor, whole blood + 1.5 µM plasmin [1]: 10.1%
TEG LY30, 2 µM inhibitor, whole blood + 1.5 µM plasmin [1]: 0%
TEG LY30, 3 µM inhibitor, whole blood + 1.5 µM plasmin [1]: 0%
TEG LY30, 5 µM inhibitor, whole blood + 1.5 µM plasmin [1]: 0%
TEG LY30, 7.5 µM inhibitor, whole blood + 1.5 µM plasmin [1]: 0%
TEG LY60, 1 µM inhibitor, whole blood + 1.5 µM plasmin [1]: 28.4%
TEG LY60, 2 µM inhibitor, whole blood + 1.5 µM plasmin [1]: 4.95%
TEG LY60, 3 µM inhibitor, whole blood + 1.5 µM plasmin [1]: 19.9%
TEG LY60, 5 µM inhibitor, whole blood + 1.5 µM plasmin [1]: 12.3%
TEG LY60, 7.5 µM inhibitor, whole blood + 1.5 µM plasmin [1]: 5%
TEG MA, 1 µM inhibitor, whole blood + 1.5 µM plasmin [1]: 6.45 mm
TEG MA, 2 µM inhibitor, whole blood + 1.5 µM plasmin [1]: 11.8 mm
TEG MA, 3 µM inhibitor, whole blood + 1.5 µM plasmin [1]: 12.3 mm
TEG MA, 5 µM inhibitor, whole blood + 1.5 µM plasmin [1]: 31.4 mm
TEG MA, 7.5 µM inhibitor, whole blood + 1.5 µM plasmin [1]: 33.9 mm
Ki [4]: > 3000 nM
Ki [5]: > 3000 nM
Ki [6]: > 3000 nM
Ki [7]: > 3000 nM
Ki [9]: 0.9 nM
Ki [2]: 0.9 nM
IC50 (read off the curve) [3]: ~3 nM
B2: KD1-L17R-KT (designed binder)
chain: MGSSHHHHHHSSGHIDDDDKNAEICLLPLDYGPCRARLLRYYYDRYTQSCRQFLYGGCEGNANNFYTWEACDDACWRIEK
notes: also called KD1SM; single mutant
Max OD405 ([8]; 0.5 μM inhibitor + tPA): 1.48 ± 0.11
OD405 at 60 min ([8]; 0.5 μM inhibitor + tPA): 0.85 ± 0.14
Fibrinolysis midpoint time ([8]; 0.5 μM inhibitor + tPA, 7 ± 1 without inhibitor): 10 ± 0.76 min
Fibrinolysis midpoint time ([8]; 1.0 μM inhibitor + tPA): 13 ± 0.5 min
Max OD405 ([8]; 1.0 μM inhibitor + tPA): 1.56 ± 0.10
OD405 at 60 min ([8]; 1.0 μM inhibitor + tPA): 0.87 ± 0.11
Fibrinolysis midpoint time ([8]; 3.0 μM inhibitor + tPA): 31 ± 1.75 min
Max OD405 ([8]; 3.0 μM inhibitor + tPA): 1.74 ± 0.05
OD405 at 60 min ([8]; 3.0 μM inhibitor + tPA): 0.80 ± 0.13
Fibrinolysis midpoint time ([8]; 4.0 μM inhibitor + tPA): 43 ± 1^ minutes
Max OD405 ([8]; 4.0 μM inhibitor + tPA): 1.62 ± 0.11
OD405 at 60 min ([8]; 4.0 μM inhibitor + tPA): 0.92 ± 0.05
Fibrinolysis midpoint time ([8]; 5.0 μM inhibitor + tPA): 55 ± 1.5 min
Max OD405 ([8]; 5.0 μM inhibitor + tPA): 1.69 ± 0.08
OD405 at 60 min ([8]; 5.0 μM inhibitor + tPA): 1.13 ± 0.06

Ki [2]: 0.59 nM
IC50 (read off the curve) [3]: 2 to 3 nM
B3: KD1-Y11T/L17R-KT (E. Coli) (designed binder)
chain: MGSSHHHHHHSSGHIDDDDKNAEICLLPLDTGPCRARLLRYYYDRYTQSCRQFLYGGCEGNANNFYTWEACDDACWRIEK
notes: also called KD1DM; E. coli expressed KD1-Y11T/L17R-KT

Source: patent US20230331817A1 (The Regents of the University of California, priority 2020, published 2023)
